{
  "source": "paper PMC5031558",
  "about": "“SPATA2 Links CYLD to LUBAC, Activates CYLD, and Controls LUBAC Signaling” (Molecular Cell, 2016)",
  "binders": {"B1": {"name": "SPATA2 (aa 7–356) (domain or fragment, UniProt Q9UM82 7-356, looked up)", "chain": "MDTKFKDDLFRKYVQFHESKVDTTTSRQRPGSDECLRVAASTLLSLHKVDPFYRFRLIQFYEVVESSLRSLSSSSLRALHGAFSMLETVGINLFLYPWKKEFRSIKTYTGPFVYYVKSTLLEEDIRAILSCMGYTPELGTAYKLRELVETLQVKMVSFELFLAKVECEQMLEIHSQVKDKGYSELDIVSERKSSAEDVRGCSDALRRRAEGREHLTASMSRVALQKSASERAAKDYYKPRVTKPSRSVDAYDSYWESRKPPLKASLSLRKEPVATDVGDDLKDEIIRPSPSLLTMASSPHGSPDVLPPASPSNGPALLRGTYFSTQDDVDLYTDSEPRATYRRQDALRPD", "notes": "also called extended SPATA2 fragment; source: E. coli, purified (as described in Elliott et al., 2014)"}, "B2": {"name": "CYLD USP domain (aa 583–956) (domain or fragment, human, UniProt Q9NQC7 583-956, looked up)", "chain": "GLEIMIGKKKGIQGHYNSCYLDSTLFCLFAFSSVLDTVLLRPKEKNDVEYYSETQELLRTEIVNPLRIYGYVCATKIMKLRKILEKVEAASGFTSEEKDPEEFLNILFHHILRVEPLLKIRSAGQKVQDCYFYQIFMEKNEKVGVPTIQQLLEWSFINSNLKFAEAPSCLIIQMPRFGKDFKLFKKIFPSLELNITDLLEDTPRQCRICGGLAMYECRECYDDPDISAGKIKQFCKTCNTQVHLHPKRLNHKYNPVSLPKDLPDWDWRHGCIPCQNMELFAVLCIETSHYVAFVKYGKDDSAWLFFDSMADRDGGQNGFNIPQVTPCPEVGEYLKMSLEDLHSLDSRRIQGCARRLLCDAYMCMYQSPTMSLYK", "notes": "Dimer by SEC-MALS (86 kDa); also called intact CYLD USP domain; source: Sf9 insect cells, purified (as described in Komander et al., 2008)"}, "B3": {"name": "CYLD USP domain I790D (domain or fragment, human)", "chain": "GLEIMIGKKKGIQGHYNSCYLDSTLFCLFAFSSVLDTVLLRPKEKNDVEYYSETQELLRTEIVNPLRIYGYVCATKIMKLRKILEKVEAASGFTSEEKDPEEFLNILFHHILRVEPLLKIRSAGQKVQDCYFYQIFMEKNEKVGVPTIQQLLEWSFINSNLKFAEAPSCLIIQMPRFGKDFKLFKKIFPSLELNITDLLEDTPRQCRDCGGLAMYECRECYDDPDISAGKIKQFCKTCNTQVHLHPKRLNHKYNPVSLPKDLPDWDWRHGCIPCQNMELFAVLCIETSHYVAFVKYGKDDSAWLFFDSMADRDGGQNGFNIPQVTPCPEVGEYLKMSLEDLHSLDSRRIQGCARRLLCDAYMCMYQSPTMSLYK", "notes": "CYLD, human, USP domain with I790D, 44 kDa observed; Monomer by SEC-MALS; Limits of the mutant are not restated; parent is m1; also called CYLD I790D; I790D dimerization mutant; source: Sf9 insect cells, purified (as described in Komander et al., 2008)"}, "B4": {"name": "SPATA2 PUB domain (aa 1–241) (domain or fragment, UniProt Q9UM82 1-241, looked up)", "chain": "MGKPSSMDTKFKDDLFRKYVQFHESKVDTTTSRQRPGSDECLRVAASTLLSLHKVDPFYRFRLIQFYEVVESSLRSLSSSSLRALHGAFSMLETVGINLFLYPWKKEFRSIKTYTGPFVYYVKSTLLEEDIRAILSCMGYTPELGTAYKLRELVETLQVKMVSFELFLAKVECEQMLEIHSQVKDKGYSELDIVSERKSSAEDVRGCSDALRRRAEGREHLTASMSRVALQKSASERAAKD", "notes": "Spermatogenesis-associated protein 2 (SPATA2), PUB domain, residues 1-241, 27.6 kDa as printed; Monomer by SEC-MALS; also called SPATA2 PUB domain (1–241); source: E. coli, purified (as described in Elliott et al., 2014)"}},
  "key": {"[1]": {"biological_target": "T1, HOIP PUB domain (aa 1–184) (UniProt Q96EP0 1-184)", "T1 construct": "HOIP (RNF31), PUB domain, residues 1-184; The construct used in the pull-down, NMR and FP experiments is called only 'HOIP PUB domain'; also called HOIP PUB domain (1–184); source: E. coli, purified (as described in Elliott et al., 2014)", "T1 sequence (looked up)": "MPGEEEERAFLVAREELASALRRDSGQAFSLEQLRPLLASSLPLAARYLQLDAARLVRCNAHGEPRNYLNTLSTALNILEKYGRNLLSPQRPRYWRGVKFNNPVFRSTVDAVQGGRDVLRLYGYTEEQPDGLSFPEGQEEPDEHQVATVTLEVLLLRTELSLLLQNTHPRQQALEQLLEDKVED", "test": "SEC-MALS; Superdex 200 column; purified SPATA2 (aa 7–356), HOIP PUB (aa 1–184) and CYLD alone and mixed", "settings": "both partners purified"}, "[2]": {"biological_target": "the molecule itself", "test": "SEC-MALS; Superdex 75 size-exclusion column; CYLD and SPATA2 PUB variants alone and mixed"}, "[3]": {"biological_target": "T2, HOIP PUB domain (HOIP 5–180, crystal structure) (UniProt Q96EP0 5-180)", "T2 construct": "5–180 may be the modelled residues of the 1–184 construct; source: E. coli, purified (as described in Elliott et al., 2014)", "T2 sequence (looked up)": "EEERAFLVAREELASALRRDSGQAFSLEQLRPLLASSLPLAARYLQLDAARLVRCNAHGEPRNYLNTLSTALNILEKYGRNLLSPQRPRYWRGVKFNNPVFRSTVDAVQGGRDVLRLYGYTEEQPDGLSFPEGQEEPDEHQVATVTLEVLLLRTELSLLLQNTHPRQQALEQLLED", "test": "crystal structure; HOIP PUB domain with SPATA2 PIM peptide (aa 334–344), 2.7 Å, space group P43, two complexes in the asymmetric unit", "settings": "both partners purified"}, "[4]": {"biological_target": "B4", "test": "SEC-MALS; Superdex 75 size-exclusion column; CYLD and SPATA2 PUB variants alone and mixed", "settings": "both partners purified"}, "SPATA2 (aa 7–356)": {"biological_target": "B1", "test": "SEC-MALS; Superdex 200 column; purified SPATA2 (aa 7–356), HOIP PUB (aa 1–184) and CYLD alone and mixed", "settings": "both partners purified"}, "[5]": {"biological_target": "B4", "test": "cell-based or functional assay"}, "CYLD USP domain I790D": {"biological_target": "B3", "test": "SPR; fraction of CYLD variant bound to SPATA2 PUB against varying CYLD concentrations; kinetic and equilibrium fits", "settings": "both partners purified"}, "[6]": {"biological_target": "B2", "test": "SPR; fraction of CYLD variant bound to SPATA2 PUB against varying CYLD concentrations; kinetic and equilibrium fits", "settings": "both partners purified"}},
  "data": [
    {"binder": "B1", "values": [
      {"measurement": "stoichiometry N", "setting": "[1]", "result": "1 SPATA2 per HOIP PUB (1:1)"}
    ]},
    {"binder": "CYLD B-box domain (aa 778–855) (domain or fragment, human, UniProt Q9NQC7 778-855, looked up, 15N-labelled in the NMR titration, CYLD, human, B-box domain, residues 778-855, 9.1 kDa as printed; Dimer by SEC-MALS (17.1 kDa); also called isolated B-box domain) TDLLEDTPRQCRICGGLAMYECRECYDDPDISAGKIKQFCKTCNTQVHLHPKRLNHKYNPVSLPKDLPDWDWRHGCIP", "values": [
      {"measurement": "stoichiometry N", "setting": "[2]", "result": 2}
    ]},
    {"binder": "DVDLYTDSEPR (peptide, UniProt Q9UM82 334-344, looked up, SPATA2, peptide spanning the PIM (Asp-Leu-Tyr-Thr, residues 336-339), residues 334-344; also called SPATA2 334–344)", "note": "[SPATA2 PIM peptide (aa 334–344)]", "values": [
      {"measurement": "binding result", "setting": "[3]", "result": "binds"}
    ]},
    {"binder": "B2", "values": [
      {"measurement": "stoichiometry N", "setting": "[2]", "result": 2},
      {"measurement": "stoichiometry N", "setting": "[4]", "result": "1 CYLD USP per SPATA2 PUB (2:2)"},
      {"measurement": "stoichiometry N", "setting": "SPATA2 (aa 7–356)", "result": "1 CYLD per SPATA2 (2:2:2 with HOIP PUB)"},
      {"measurement": "kcat/KM of CYLD for fluorescent Met1/Lys63-linked diUb substrates, with against without SPATA2", "setting": "[5]", "result": "~2", "unit": "fold"}
    ]},
    {"binder": "B3", "values": [
      {"measurement": "stoichiometry N", "setting": "[4]", "result": "1 CYLD USP I790D per SPATA2 PUB (1:1)"}
    ]},
    {"binder": "B4", "values": [
      {"measurement": "Kd", "setting": "CYLD USP domain I790D", "result": 518, "unit": "nM"},
      {"measurement": "Kd", "setting": "[6]", "result": 96, "unit": "nM"}
    ]}
  ]
}
